These results are taken from US20130231277A1 (NEW YORK UNIVERSITY, published 2013).

For this experiment, the target named is T1, ectodomain of murine αKlotho (A35 to K982 of SEQ ID NO: 231) with a C-terminal FLAG tag (murine, UniProt O35082 35-982).
T1 construct: Purified from culture media of a HEK293 cell line; also called αKlotho ectodomain; not shown: C-terminal FLAG tag
T1 sequence: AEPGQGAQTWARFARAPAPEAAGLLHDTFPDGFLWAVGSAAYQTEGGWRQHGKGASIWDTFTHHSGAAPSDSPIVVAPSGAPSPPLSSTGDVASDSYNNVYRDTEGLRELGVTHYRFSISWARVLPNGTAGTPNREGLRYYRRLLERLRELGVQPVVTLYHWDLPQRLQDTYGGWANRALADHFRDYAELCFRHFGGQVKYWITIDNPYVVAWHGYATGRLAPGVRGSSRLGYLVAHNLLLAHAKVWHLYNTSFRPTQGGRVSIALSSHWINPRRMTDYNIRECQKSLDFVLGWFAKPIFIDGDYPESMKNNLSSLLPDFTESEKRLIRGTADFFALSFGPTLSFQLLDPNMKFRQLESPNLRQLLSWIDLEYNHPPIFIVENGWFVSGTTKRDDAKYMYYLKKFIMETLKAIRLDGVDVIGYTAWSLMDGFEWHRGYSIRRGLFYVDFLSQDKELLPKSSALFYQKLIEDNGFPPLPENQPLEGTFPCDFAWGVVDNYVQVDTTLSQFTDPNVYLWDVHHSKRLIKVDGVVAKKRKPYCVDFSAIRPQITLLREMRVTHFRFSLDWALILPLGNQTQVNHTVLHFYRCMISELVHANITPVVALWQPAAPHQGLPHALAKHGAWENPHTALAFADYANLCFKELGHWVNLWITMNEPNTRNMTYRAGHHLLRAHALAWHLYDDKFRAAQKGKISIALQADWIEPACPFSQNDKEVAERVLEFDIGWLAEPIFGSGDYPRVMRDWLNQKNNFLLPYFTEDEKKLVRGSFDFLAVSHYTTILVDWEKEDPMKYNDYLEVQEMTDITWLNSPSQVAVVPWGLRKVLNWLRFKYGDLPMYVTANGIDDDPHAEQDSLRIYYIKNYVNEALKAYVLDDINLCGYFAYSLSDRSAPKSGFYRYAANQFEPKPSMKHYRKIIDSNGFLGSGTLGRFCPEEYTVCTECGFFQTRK
As to the kind of experiment: SPR; FGF21 immobilized, increasing concentrations of αKlotho ectodomain passed over the chip (FIG. 4E). The procedure: SPR experiments were performed on a Biacore 2000 instrument (Biacore AB), and all the protein-protein and protein-peptide interactions were studied at 25° C. in HBS-EP buffer (10 mM HEPES-NaOH, pH 7.4, 150 mM NaCl, 3 mM EDTA, 0.005% (v/v) polysorbate 20). Proteins were immobilized by amine coupling on flow channels of research grade CM5 chips (Biacore AB). Proteins were injected over a CM5 chip at a flow rate of 50 μl min⁻¹, and at the end of each protein injection (180 s), HBS-EP buffer (50 μl min⁻¹) was flowed over the chip to monitor dissociation for 180 s. In experiments where βKlotho binding to FGFR was analyzed, the chip surface was then regenerated by injecting 50 μl of 2.0 M NaCl in 10 mM sodium/potassium phosphate, pH 6.5. In experiments where α/βKlotho binding to FGF19/21/23 or binding of the FGFR1c-βKlotho complex to FGF21 was studied, 2.0 M NaCl in 10 mM sodium acetate, pH 4.5 was used for chip regeneration. To control for nonspecific binding in experiments where the ectodomain of αKlotho or βKlotho was immobilized on the chip, β-glucuronidase was coupled to the control flow channel of the chip (˜43-68 fmol/mm²). […] For each protein injection over a chip onto which αKlotho or βKlotho had been immobilized, the nonspecific responses from the β-glucuronidase control flow channel were subtracted from the responses recorded for the α/βKlotho flow channel.

B1: human FGF21, secreted bioactive form (H29 to S209 of SEQ ID NO: 100) (ligand)
chain: HPIPDSSPLLQFGGQVRQRYLYTDDAQQTEAHLEIREDGTVGGAADQSPESLLQLKALKPGVIQILGVKTSRFLCQRPDGALYGSLHFDPEACSFRELLLEDGYNVYQSEAHGLPLHLPGNKSPHRDPAPRGPARFLPLPGLPPALPEPPGILAPQPPDVGSSDPLSMVGPSQGRSPSYAS
notes: Used both immobilized on the SPR chip and in solution; also called wild-type FGF21; native FGF21
With B1, the binding result is “no binding”.
